Experimental data: publication PMC4565672

These substances were tested against HERC2 (endogenous, HEK293 cells) [human (endogenous in HEK293)] (assay: co-immunoprecipitation (FLAG-IP) and Western blotting, band quantification). Conditions: mean ± SE from five repeated experiments; parent: 1; read off a plot.
“FLAG-tagged human LRRK2 (wild type) mutant R1398L [human] / HERC2 (endogenous, HEK293 cells) [human (endogenous in HEK293)] chain 1 R1398L” gave a ratio to parent of 1.4. Substance “FLAG-tagged human LRRK2 (wild type) mutant R1441G [human] / HERC2 (endogenous, HEK293 cells) [human (endogenous in HEK293)] chain 1 R1441G” has a ratio to parent of 2.5. For “FLAG-tagged human LRRK2 (wild type) mutant T1348N [human] / HERC2 (endogenous, HEK293 cells) [human (endogenous in HEK293)] chain 1 T1348N”, the ratio to parent was 3.4.

These substances were tested against NEURL4 (endogenous, HEK293 cells) [human (endogenous in HEK293)] in the same assay as above. Conditions: mean ± SE from five repeated experiments; parent: 1; read off a plot.
Work on “FLAG-tagged human LRRK2 (wild type) mutant T1348N [human] / NEURL4 (endogenous, HEK293 cells) [human (endogenous in HEK293)] chain 1 T1348N” yielded a ratio to parent of 4.3. For “FLAG-tagged human LRRK2 (wild type) mutant R1441G [human] / NEURL4 (endogenous, HEK293 cells) [human (endogenous in HEK293)] chain 1 R1441G”, the ratio to parent was 3.2. In the case of “FLAG-tagged human LRRK2 (wild type) mutant R1398L [human] / NEURL4 (endogenous, HEK293 cells) [human (endogenous in HEK293)] chain 1 R1398L”, the ratio to parent is reported as 1.8.
